Like-named read-outs stand apart in the source and are kept apart here.
Tests used:
BCMA (TNFRSF17) = BCMA (TNFRSF17) (human, UniProt Q02223 1-54); assay: EMSA
[1] = target: T1, BAFF-R (B-cell activating factor receptor) (human, UniProt Q96RJ3 1-76); assay: EMSA
T1 sequence: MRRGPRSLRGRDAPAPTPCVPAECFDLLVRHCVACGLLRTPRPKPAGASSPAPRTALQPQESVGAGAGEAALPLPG

[2] = target: T1, BAFF-R (B-cell activating factor …); assay: filter binding
[3] = target: T1, BAFF-R (B-cell activating factor …); assay: EMSA; remark: listed apart in the source

Chain of BCMA (TNFRSF17) (Q02223 1-54): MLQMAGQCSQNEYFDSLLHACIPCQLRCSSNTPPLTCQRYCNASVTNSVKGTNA

B1: R-1 aptamer (structured_RNA)
RNA: GGGAGGACGAUGCGGGAGGCUCAACAAUGAUAGAGCCCGCAAUGUUGAUAGUUGUGCCCAGUCUGCAGACGACUCGCCCGA
modifications: 2'-F U and C
- binding result (BCMA (TNFRSF17)): no binding
- Kd [1]: ~47 nM
- binding signal [2]: > 36 % RNA retained
- Kd [3]: 54 nM

B2: R-22 aptamer (structured_RNA)
RNA: GGGAGGACGAUGCGGAUCCUCCGAAGGUCGCGCCAACGUCACACAUUAAGCUUUUGUUCGUCUGCAGACGACUCGCCCGA
modifications: 2'-F U and C
- binding signal [2]: 3.6 % RNA retained

B3: R-14 aptamer (structured_RNA)
RNA: GGGAGGACGAUGCGGAUAACUAUUGUGCUAGAGGGCUUAUUUAUGUGAGCCGGUUGAUAGUUGCGCAGACGACUCGCCCGA
modifications: 2'-F U and C
- Kd [1]: ~96 nM
- binding signal [2]: > 36 % RNA retained

B4: R-1-STAT3 27-mer OVH chimera (structured_RNA)
RNA 1: GGGAGGACGAUGCGGGAGGCUCAACAAUGAUAGAGCCCGCAAUGUUGAUAGUUGUGCCCAGUCUGCAGACGACUCGCCCGAUUUUUUUUGAGAACGGAAGCUGCAGAAAGAUACGA
RNA 2: GUAUCUUUCUGCAGCUUCCGUUCUC
modifications: 2'-F U and C in aptamer-sense strand
- Kd [1]: 35 nM

B5: R-1-STAT3 27-mer SWAP chimera (structured_RNA)
RNA 1: GGGAGGACGAUGCGGGAGGCUCAACAAUGAUAGAGCCCGCAAUGUUGAUAGUUGUGCCCAGUCUGCAGACGACUGCCCGAUUUUUUUUUCAGUCGUAUCUUUCUGCAGCUUCCGU
RNA 2: GGAAGCUGCAGAAAGAUACGACUGA
modifications: 2'-F U and C in aptamer-antisense strand; S7 3' ga are DNA
- Kd [1]: 56 nM
